# From patent publication US11674959B2, “Methods for identifying and preparing pharmaceutical agents for activating Tie1 and/or Tie2 receptors” (The Johns Hopkins University, priority 2017, dated 2023)
# Assays:
# [1] = system: phospho-Tie2 (Y992); test: Immunofluorescence of MEC monolayers for phospho-Tie2 (Y992); format: cell-based, human; conditions: 200 ng/ml Ang2 for fifteen minutes plus AXT107
# Procedure: As such, subsequent experiments evaluate the effects of AXT107 at cell-cell junctions in MEC monolayers using immunofluorescence microscopy rather than at the EC-ECM interface.
# Human dermal microvascular endothelial cells (Lonza) were maintained at 37° C. and 5% CO2 in EBM-2MV medium (Lonza) and used between passages two through seven. Where applicable, cells were serum starved in EBM-2 medium (Lonza) with no supplements. For FITC-Dextran permeability assays phenol red-free media were used to avoid auto-fluorescence. AXT107 were manufactured at New England Peptide by […], lyophilized, and dissolved in 100% DMSO.
# Glass-bottomed, 96-well plates with half well size were coated with 10 μg/ml FN1 for two hours at 37° C. The FN1 solution was then removed by aspiration and the plate seeded with 4×10^3 MECs in EGM-2MV media. After twenty-four hours, the cells were washed once with dPBS containing Ca^2+ and Mg^2+ to remove dead cells and the cells were allowed to grow for an additional twenty-four hours. For three-hour duration treatments (i.e., VE-cadherin), cells were washed twice with dPBS containing Ca^2+ and Mg^2+ and serum starved in EBM-2 for ninety minutes. The media was then removed and the cells were treated for three hours with 100 μl of EBM-2 media containing 200 ng/ml Ang2 or PBS and varying concentrations of AXT107 or DMSO. […]
# [2] = target: T1, Tie2 / α5 integrin (Homo sapiens, UniProt P08648); test: Tie2 immunoprecipitation from fractionated lysates, blotted for α5 integrin; format: cell-based; conditions: peptide-treated insoluble fraction; with 200 ng/ml Ang2 or no growth factor
# T1 construct: host or cells: human dermal microvascular endothelial cells (MECs)
# T1 sequence (P08648 42-894 limits assumed): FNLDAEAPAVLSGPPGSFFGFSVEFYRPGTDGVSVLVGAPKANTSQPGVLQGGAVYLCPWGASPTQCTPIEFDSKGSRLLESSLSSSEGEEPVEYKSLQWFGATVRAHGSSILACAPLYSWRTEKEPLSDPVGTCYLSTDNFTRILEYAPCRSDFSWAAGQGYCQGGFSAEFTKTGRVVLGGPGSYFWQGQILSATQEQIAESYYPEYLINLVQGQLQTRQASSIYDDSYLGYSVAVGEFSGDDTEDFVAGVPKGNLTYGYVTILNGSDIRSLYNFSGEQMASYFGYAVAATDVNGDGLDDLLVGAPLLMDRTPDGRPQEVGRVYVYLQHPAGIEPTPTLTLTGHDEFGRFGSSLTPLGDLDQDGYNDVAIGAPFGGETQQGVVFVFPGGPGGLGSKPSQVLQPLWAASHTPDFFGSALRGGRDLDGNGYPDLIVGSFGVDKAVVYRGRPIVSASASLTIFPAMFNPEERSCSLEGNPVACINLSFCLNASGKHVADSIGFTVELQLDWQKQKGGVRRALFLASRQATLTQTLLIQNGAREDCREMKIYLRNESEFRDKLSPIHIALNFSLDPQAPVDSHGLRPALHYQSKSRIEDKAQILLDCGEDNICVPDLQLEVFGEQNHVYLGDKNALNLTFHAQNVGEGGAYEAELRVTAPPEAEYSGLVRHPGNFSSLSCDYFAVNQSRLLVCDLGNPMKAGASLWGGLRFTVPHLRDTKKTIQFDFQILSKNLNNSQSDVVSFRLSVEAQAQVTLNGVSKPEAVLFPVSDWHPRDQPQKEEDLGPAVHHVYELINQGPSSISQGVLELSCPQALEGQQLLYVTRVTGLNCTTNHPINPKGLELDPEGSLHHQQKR
# T1 sequence (P08648 895-1049 limits assumed): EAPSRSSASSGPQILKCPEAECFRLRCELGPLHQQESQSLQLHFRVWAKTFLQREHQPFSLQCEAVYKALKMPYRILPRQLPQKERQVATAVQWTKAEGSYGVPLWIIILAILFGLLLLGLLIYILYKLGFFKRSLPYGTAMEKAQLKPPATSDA
# T1 sequence (Q02763 23-1124 partner): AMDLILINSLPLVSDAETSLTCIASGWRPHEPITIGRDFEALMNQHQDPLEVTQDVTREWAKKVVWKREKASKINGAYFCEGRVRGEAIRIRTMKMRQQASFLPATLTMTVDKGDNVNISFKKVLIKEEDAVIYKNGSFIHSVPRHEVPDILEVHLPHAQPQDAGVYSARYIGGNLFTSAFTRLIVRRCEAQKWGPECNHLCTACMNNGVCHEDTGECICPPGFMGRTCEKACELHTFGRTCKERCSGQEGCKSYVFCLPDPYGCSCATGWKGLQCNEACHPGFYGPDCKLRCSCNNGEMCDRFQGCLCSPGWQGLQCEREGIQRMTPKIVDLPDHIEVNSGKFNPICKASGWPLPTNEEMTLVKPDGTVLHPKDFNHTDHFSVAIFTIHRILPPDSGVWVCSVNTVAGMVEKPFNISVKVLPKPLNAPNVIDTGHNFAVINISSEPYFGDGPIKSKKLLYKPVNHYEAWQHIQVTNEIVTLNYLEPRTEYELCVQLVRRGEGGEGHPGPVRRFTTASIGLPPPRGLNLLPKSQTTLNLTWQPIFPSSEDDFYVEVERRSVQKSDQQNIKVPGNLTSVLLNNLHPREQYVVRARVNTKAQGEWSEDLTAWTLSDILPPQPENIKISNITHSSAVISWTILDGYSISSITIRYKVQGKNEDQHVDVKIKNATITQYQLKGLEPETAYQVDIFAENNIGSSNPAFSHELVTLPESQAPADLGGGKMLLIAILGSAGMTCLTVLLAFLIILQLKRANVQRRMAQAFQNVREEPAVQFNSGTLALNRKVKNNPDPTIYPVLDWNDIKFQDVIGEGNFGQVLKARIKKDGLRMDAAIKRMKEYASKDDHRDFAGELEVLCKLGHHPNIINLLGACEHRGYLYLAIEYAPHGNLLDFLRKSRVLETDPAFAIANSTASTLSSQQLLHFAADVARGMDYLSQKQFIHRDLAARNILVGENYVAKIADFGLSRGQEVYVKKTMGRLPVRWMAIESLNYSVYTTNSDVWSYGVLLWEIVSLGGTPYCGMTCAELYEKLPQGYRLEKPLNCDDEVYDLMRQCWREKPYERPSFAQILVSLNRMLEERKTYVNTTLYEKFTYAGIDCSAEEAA
# Procedure: Finally, it was determined whether or not the α5 integrin subunit remains complexed with Tie2 following its disassociation with β1 integrin.
# (§1) The isolation of Triton X-100 soluble and insoluble fractions was performed using modifications to previously-described procedures (see, e.g., Lampugnani et al., J Cell Biol. 1995; 129(1):203-217). FN1-coated six-well plates were seeded with 2.5×10^6 cells and cultured for forty-eight hours, as described above. The cultures were then serum starved for ninety minutes in EBM-2 media, treated with 100 μM AXT107 or DMSO vehicle, and fifteen minutes with 1 mM sodium vanadate. The cells were then stimulated with either 100 ng/ml VEGFA, 400 ng/ml Ang2, or PBS for fifteen minutes. The plates were then transferred to ice and washed twice with cold dPBS containing Ca^2+ and Mg^2+ and twice with EBM-2 media. The media was then removed and the cells incubated for thirty minutes on ice, at 4° C. in 200 μl of Triton X-100 extraction buffer (10 mM Tris-HCl, pH 7.5; 150 mM NaCl; 2 mM CaCl2; 1% NP-40; 1% Triton C-100; and a protease inhibitor cocktail (Cell Signaling, Cat #: 5871)) with occasional agitation. The extraction buffer was gently collected and centrifuged at 12,000×g for five minutes. […] Samples were analyzed by western blot as described above. […]
# [3] = target: T2, α5β1 integrin (Homo sapiens, UniProt P05556+P08648); test: Immunoprecipitation of α5 integrin in Triton X-100 fractionated lysates, blotted for β1; format: cell-based; conditions: after AXT107 treatment; data not shown
# T2 construct: host or cells: human dermal microvascular endothelial cells (MECs)
# T2 sequence (P08648 42-894 limits assumed): as the sequence (P08648 42-894 limits assumed) above
# T2 sequence (P08648 895-1049 limits assumed): as the sequence (P08648 895-1049 limits assumed) above
# T2 sequence (P05556 21-798): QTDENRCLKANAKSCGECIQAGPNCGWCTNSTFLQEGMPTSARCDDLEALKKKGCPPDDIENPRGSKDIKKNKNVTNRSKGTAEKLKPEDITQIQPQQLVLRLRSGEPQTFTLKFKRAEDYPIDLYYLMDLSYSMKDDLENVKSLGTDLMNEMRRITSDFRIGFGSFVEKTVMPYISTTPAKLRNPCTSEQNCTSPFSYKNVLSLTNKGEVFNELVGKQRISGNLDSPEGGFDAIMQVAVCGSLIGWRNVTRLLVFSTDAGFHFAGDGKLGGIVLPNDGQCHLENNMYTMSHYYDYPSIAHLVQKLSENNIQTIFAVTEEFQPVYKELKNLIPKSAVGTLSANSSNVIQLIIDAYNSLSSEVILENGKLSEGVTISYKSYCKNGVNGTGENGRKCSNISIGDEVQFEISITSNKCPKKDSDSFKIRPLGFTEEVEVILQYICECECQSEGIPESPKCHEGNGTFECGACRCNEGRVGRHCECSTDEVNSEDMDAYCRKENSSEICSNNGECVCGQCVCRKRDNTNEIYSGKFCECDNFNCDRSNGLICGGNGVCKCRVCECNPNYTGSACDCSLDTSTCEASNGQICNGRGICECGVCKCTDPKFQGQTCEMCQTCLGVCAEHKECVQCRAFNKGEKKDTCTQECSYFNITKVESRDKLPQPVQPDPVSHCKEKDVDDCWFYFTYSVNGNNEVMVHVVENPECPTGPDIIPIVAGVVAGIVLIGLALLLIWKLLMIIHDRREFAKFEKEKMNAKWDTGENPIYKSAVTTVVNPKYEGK
# Description: Since β1 integrin is the only known β subunit to heterodimerize with the α5 integrin subunit, it unlikely that the α5 subunit, that was observed here in the insoluble fractions, originated from a heterodimeric integrin pair other than α5β1. Unfortunately, high background impaired the visualization of α5 integrin alone by immunofluorescence. Given the unexpected discovery that AXT107 dissociates the integrin heterodimer, this discovery was confirmed in several independent assays. […] Thus, interactions between Tie2 and heterodimerized α5β1 integrin appear to retain Tie2 at the EC-ECM interface.
# as §1, with “media.” for “media. The media was then removed and the cells incubated for thirty minutes on ice, at 4° C. in 200 μl of Triton X-100 extraction buffer (10 mM Tris-HCl, pH 7.5; 150 mM NaCl; 2 mM CaCl2; 1% NP-40; 1% Triton C-100; and a protease inhibitor cocktail (Cell Signaling, Cat #: 5871)) with occasional agitation. The extraction buffer was gently collected and centrifuged at 12,000×g for five minutes.”
sequence,measurement,setting,value
LRRFSTAPFAFIDINDVINF [AXT107],phospho-Tie2 fluorescence intensity and distribution,[1],increased overall fluorescence intensity and redistributed phospho-Tie2 along cell-cell junctions and into large clusters
same,α5 integrin complexed with Tie2,[2],"α5 integrin was observed in the peptide-treated, insoluble fraction following immunoprecipitation of Tie2"
same,α5-β1 interaction by fraction after α5 immunoprecipitation,[3],interactions with β1 were only found in the soluble fractions
